In patent US12084522B2, “Peptides, combination of peptides, and cell based medicaments for use in immunotherapy against urinary bladder cancer and other cancers” (Immatics Biotechnologies GmbH, priority 2016, dated 2024):

Key:
[1] = biological target: HLA-A*02:01 (Homo sapiens, UniProt P04439, D140Y/D185E/D98H/E176V/E277Q/G131W/G231S/I119V/I121R/I166T/I218V/L300P/L318F/N151K/N90K/P208A/P217A/Q86G/Q94H/R138H/R169H/T345S); experiment: MHC binding assay (UV-ligand exchange, β2m ELISA, peptide exchange yield); settings: binding to HLA-A*02:01 ranged by peptide exchange yield (UV-ligand exchange, β2m ELISA)
[2] = system: CD8+ T cells from healthy HLA-A*02 donors; experiment: In vitro immunogenicity: priming of CD8+ T cells with aAPCs loaded with peptide/MHC complexes and anti-CD28, pMHC multimer readout; assay type: cell-based, human; settings: HLA-A*02 restricted peptides, positive wells among evaluable, Table 10B
From the text: In order to obtain information regarding the immunogenicity of the TUMAPs of the present invention, the inventors performed investigations using an in vitro T-cell priming assay based on repeated stimulations of CD8+ T cells with artificial antigen presenting cells (aAPCs) loaded with peptide/MHC complexes and anti-CD28 antibody.
In order to perform in vitro stimulations by artificial antigen presenting cells loaded with peptide-MHC complex (pMHC) and anti-CD28 antibody, the inventors first isolated CD8+ T cells from fresh HLA-A*02 leukapheresis products via positive selection using CD8 microbeads (Miltenyi Biotec, Bergisch-Gladbach, Germany) of healthy donors obtained from the University clinics Mannheim, Germany, after informed consent.
PBMCs and isolated CD8+ lymphocytes were incubated in T-cell medium (TCM) until use consisting of RPMI-Glutamax (Invitrogen, Karlsruhe, Germany) supplemented with 10% heat inactivated human AB serum (PAN-Biotech, Aidenbach, Germany), 100 U/ml Penicillin/100 μg/ml Streptomycin (Cambrex, Cologne, Germany), 1 mM sodium pyruvate (CC Pro, Oberdorla, Germany), 20 μg/ml Gentamycin (Cambrex). 2.5 ng/ml IL-7 (PromoCell, Heidelberg, Germany) and 10 U/ml IL-2 (Novartis Pharma, Nürnberg, Germany) were also added to the TCM at this step.
Generation of pMHC/anti-CD28 coated beads, T-cell stimulations and readout was performed in a highly defined in vitro system using four different pMHC molecules per stimulation condition and 8 different pMHC molecules per readout condition.
The purified co-stimulatory mouse IgG2a anti human CD28 Ab 9.3 (Jung et al., 1987) was chemically biotinylated using Sulfo-N-hydroxysuccinimidobiotin as recommended by the manufacturer (Perbio, Bonn, Germany). Beads used were 5.6 μm diameter streptavidin coated polystyrene particles (Bangs Laboratories, Illinois, USA).
800.000 beads/200 μl were coated in 96-well plates in the presence of 4×12.5 ng different biotin-pMHC, washed and 600 ng biotin anti-CD28 were added subsequently in a volume of 200 μl. Stimulations were initiated in 96-well plates by co-incubating 1×10^6 CD8+ T cells with 2×10^5 washed coated beads in 200 μl TCM supplemented with 5 ng/ml IL-12 (PromoCell) for 3 days at 37° C. Half of the medium was then exchanged by fresh TCM supplemented with 80 U/ml IL-2 and incubating was continued for 4 days at 37° C. This stimulation cycle was performed for a total of three times. For the pMHC multimer readout using 8 different pMHC molecules per condition, a two-dimensional combinatorial coding approach was used as previously described (Andersen et al., 2012) with minor modifications encompassing coupling to 5 different fluorochromes. Finally, multimeric analyses were performed by staining the cells with Live/dead near IR dye (Invitrogen, Karlsruhe, Germany), CD8-FITC antibody clone SK1 (BD, Heidelberg, Germany) and fluorescent pMHC multimers. For analysis, a BD LSRII SORP cytometer equipped with appropriate lasers and filters was used. Peptide specific cells were calculated as percentage of total CD8+ cells. Evaluation of multimeric analysis was done using the FlowJo software (Tree Star, Oregon, USA). In vitro priming of specific multimer+CD8+ lymphocytes was detected by comparing to negative control stimulations.

| Substance | Peptide exchange [1] | Wells positive [%] [2] |
| --- | --- | --- |
| 75 (RVISSVISV; listed as Homo sapiens) [compound 75] | +++ (>50 = +++) | ++ (20%-49% = ++) |
| 111 (LLDVTPKAV; listed as Homo sapiens) [compound 111] | +++ (>50 = +++) | +++ (50%-69% = +++) |
| 114 (IITKDLFQV; listed as Homo sapiens) [compound 114] | +++ (>50 = +++) | + (<20% = +) |
| 126 (SLLRVGWSV; listed as Homo sapiens) [compound 126] | ++++ (>75% = ++++) | ++ (20%-49% = ++) |
| 146 (YLARIQGFQV; listed as Homo sapiens) [compound 146] | ++++ (>75% = ++++) | ++ (20%-49% = ++) |
| 148 (TLGVIPESV; listed as Homo sapiens) [compound 148] | ++++ (>75% = ++++) | + (<20% = +) |
